In EP1899377B1 (GLAXO GROUP LIMITED, dated 2012):
Read-outs that look alike come from different tables or passages of the source.

T1: GST-human NOGO-A56 (human, UniProt Q9NQC3 586-785)
T1 construct: GST-tagged fusion expressed in E. coli BL21 from pGEX-6P1; also called hNOGO; human NOGO 5+6 GST; not shown: Glutathione S-transferase tag encoded by vector pGEX-6P1 (N-terminal, with vector linker)
T1 sequence: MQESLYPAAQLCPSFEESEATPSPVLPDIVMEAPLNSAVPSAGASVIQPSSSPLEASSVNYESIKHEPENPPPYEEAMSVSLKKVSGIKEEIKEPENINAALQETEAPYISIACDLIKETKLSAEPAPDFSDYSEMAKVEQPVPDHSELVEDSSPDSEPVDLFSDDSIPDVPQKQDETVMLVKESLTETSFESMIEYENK


Assays:
[1] = target: T1, GST-human NOGO-A56; test: SPR (Biacore), GST-human NOGO-A56 immobilised, purified antibody as analyte; single experiment
[2] = target: T1, GST-human NOGO-A56; test: as above; remark: listed apart in the source
[3] = target: T1, GST-human NOGO-A56; test: as above; remark: listed apart in the source
[4] = target: T1, GST-human NOGO-A56; test: SPR off-rate ranking, supernatant from small-scale transient transfection over immobilised GST-human NOGO-A56; single experiment

Kd [1] [nM] | koff [1] [s⁻¹] | kon [1] [M⁻¹ s⁻¹] | Kd [2] [nM] | koff [2] [s⁻¹] | kon [2] [M⁻¹ s⁻¹] | Kd [3] [nM] | koff [3] [s⁻¹] | kon [3] [M⁻¹ s⁻¹] | koff [4] [s⁻¹] | Binder
1.47 | 0.0069 | 4.9e+06 | 1.32 | 0.00767 | 5.83e+06 | 1.33 | 0.00759 | 5.69e+06 | 0.00778 | H22L16 (antibody, human IgG1, kappa, V domains shown, human gamma1 mutated constant region, human kappa) VH: QVQLVQSGAEVKKPGASVKVSCKASGYTFTSYWMHWVKQRPGQGLEWIGNINPSNGGTNYNEKFKSKATMTRDTSTSTAYMELSSLRSEDTAVYYCELGQGYWGQGTLVTVSS VL: DIVMTQSPLSNPVTLGQPVSISCRSSKSLLYKDGKTYLNWFLQRPGQSPQLLIYLMSTRASGVPDRFSGGGSGTDFTLKISRVEAEDVGVYYCQQLVEYPLTFGQGTKLEIKR
– | – | – | – | – | – | – | – | – | 0.00595 | H19Lc (antibody, human IgG1, kappa, V domains shown) VH: QVQLVQSGAEVKKPGASVKVSCKASGYTFTSYWMHWVRQRPGQGLEWIGNINPSNGGTNYNEKFKSRATMTRDTSTSTAYMELSSLRSEDTAVYYCELGQGYWGQGTLVTVSS VL: DIVITQDELSNPVTSGESVSISCRSSKSLLYKDGKTYLNWFLQRPGQSPQLLIYLMSTRASGVSDRFSGSGSGTDFTLEISRVKAEDVGVYYCQQLVEYPLTFGAGTKLELKR
– | – | – | – | – | – | – | – | – | 0.00383 | H24Lc (antibody, human IgG1, kappa, V domains shown) VH: QVQLVQSGAEVKKPGASVKVSCKASGYTFTSYWMHWVKQRPGQGLEWIGNINPSNGGTNYNEKFKSKATLTVDTSTSTAYMELSSLRSEDTAVYYCELGQGYWGQGTLVTVSS VL: DIVITQDELSNPVTSGESVSISCRSSKSLLYKDGKTYLNWFLQRPGQSPQLLIYLMSTRASGVSDRFSGSGSGTDFTLEISRVKAEDVGVYYCQQLVEYPLTFGAGTKLELKR
– | – | – | – | – | – | – | – | – | 0.00507 | H20Lc (antibody, human IgG1, kappa, V domains shown) VH: QVQLVQSGAEVKKPGASVKVSCKASGYTFTSYWMHWVRQAPGQGLEWIGNINPSNGGTNYNEKFKSKATMTRDTSTSTAYMELSSLRSEDTAVYYCELGQGYWGQGTLVTVSS VL: DIVITQDELSNPVTSGESVSISCRSSKSLLYKDGKTYLNWFLQRPGQSPQLLIYLMSTRASGVSDRFSGSGSGTDFTLEISRVKAEDVGVYYCQQLVEYPLTFGAGTKLELKR
– | – | – | – | – | – | – | – | – | 0.00342 | H23Lc (antibody, human IgG1, kappa, V domains shown) VH: QVQLVQSGAEVKKPGASVKVSCKASGYTFTSYWMHWVKQRPGQGLEWIGNINPSNGGTNYNEKFKSKATMTVDTSTSTAYMELSSLRSEDTAVYYCELGQGYWGQGTLVTVSS VL: DIVITQDELSNPVTSGESVSISCRSSKSLLYKDGKTYLNWFLQRPGQSPQLLIYLMSTRASGVSDRFSGSGSGTDFTLEISRVKAEDVGVYYCQQLVEYPLTFGAGTKLELKR
– | – | – | – | – | – | – | – | – | 0.00569 | H21Lc (antibody, human IgG1, kappa, V domains shown) VH: QVQLVQSGAEVKKPGASVKVSCKASGYTFTSYWMHWVRQRPGQGLEWIGNINPSNGGTNYNEKFKSKATMTRDTSTSTAYMELSSLRSEDTAVYYCELGQGYWGQGTLVTVSS VL: DIVITQDELSNPVTSGESVSISCRSSKSLLYKDGKTYLNWFLQRPGQSPQLLIYLMSTRASGVSDRFSGSGSGTDFTLEISRVKAEDVGVYYCQQLVEYPLTFGAGTKLELKR
– | – | – | – | – | – | – | – | – | 0.013 | H19L13 (antibody, human IgG1, kappa, V domains shown) VH: QVQLVQSGAEVKKPGASVKVSCKASGYTFTSYWMHWVRQRPGQGLEWIGNINPSNGGTNYNEKFKSRATMTRDTSTSTAYMELSSLRSEDTAVYYCELGQGYWGQGTLVTVSS VL: DIVMTQSPLSLPVTLGQPASISCRSSKSLLYKDGKTYLNWFQQRPGQSPQLLIYLMSTRASGVPDRFSGGGSGTDFTLKISRVEAEDVGVYYCQQLVEYPLTFGQGTKLEIKR
6.4 | 0.014 | 2.2e+06 | 7.76 | 0.0157 | 2.02e+06 | 8.1 | 0.0155 | 1.91e+06 | – | H6L13 (antibody, human IgG1, kappa, V domains shown) VH: QVQLVQSGAEVKKPGASVKVSCKASGYTFTSYWMHWVRQAPGQGLEWIGNINPSNGGTNYNEKFKSRATMTRDTSTSTAYMELSSLRSEDTAVYYCELGQGYWGQGTLVTVSS VL: DIVMTQSPLSLPVTLGQPASISCRSSKSLLYKDGKTYLNWFQQRPGQSPQLLIYLMSTRASGVPDRFSGGGSGTDFTLKISRVEAEDVGVYYCQQLVEYPLTFGQGTKLEIKR
3.8 | 0.0064 | 1.9e+06 | 1.99 | 0.00587 | 2.95e+06 | – | – | – | 0.00606 | H23L16 (antibody, human IgG1, kappa, V domains shown, human gamma1 mutated constant region, human kappa) VH: QVQLVQSGAEVKKPGASVKVSCKASGYTFTSYWMHWVKQRPGQGLEWIGNINPSNGGTNYNEKFKSKATMTVDTSTSTAYMELSSLRSEDTAVYYCELGQGYWGQGTLVTVSS VL: DIVMTQSPLSNPVTLGQPVSISCRSSKSLLYKDGKTYLNWFLQRPGQSPQLLIYLMSTRASGVPDRFSGGGSGTDFTLKISRVEAEDVGVYYCQQLVEYPLTFGQGTKLEIKR
